From a protein production outcome set (Wang et al. 2014)

Test: label from the status in PepcDB records

Row | Sequence | protein production
1 | MASILRWFVRAFALALAAQSVCANPRPEVIDTIAATPAGLVAVTEDGTGLWSLVDGSRPAWQARPRAPNARGDMQLEPVAVSPDGRWLAATRGYKDPVIVVRDAATGRAVREIKAPRSGVDGLRFAGDDVLVALYAGRLAAVWEASSGKARGVFELPAAPRQVAASADGRYLAVGQDKQRVTVYDLEGGKSLGNFELGSIASKSHAVPTHDILFMAFAYDGTVVVHHATGYIQRFDPRRAAPAALLGSQDIPLRGVATSLSPDRRVLLTADRPGALTLYRLDQPAPARSALRSALGEVTASAWEAGSRRFAVADNQGRVELWDARKPAGAALEGKHAGAIEQLAFASAGRFLVSSGRDGSIRVRETATGQEAVRLVGLGETGWVSMMPAGYFHSSGLPAEAAINVRIGSDVYGIDNFRERYYRPDILSAALQGRSVRPQRTLADTRPPPQVRADPVPASLAADTYTLVLQLTDQGGGIGDVRVLRNDVAVANHAADAQAAAGSQRRSIPVKLAAGRNEIKVIAFNAENSLSSKPLRLTLDVRATQPEKPVLHAMIVGINEFGEASLNLQYAVNDANAIARELRERTRGLYRDVRIELLTTPQQTSRASLIESLRRYQQLDAGDVFMFYVSTHGAVMGDKPVDQEYFLIPSNAKSPVFAHDAISQHELKRLFSSIPAGKKLLLFDTCFAGALGEALYQPAVERGVAENGAVNVLATAIGSTTLAASAPLEMSYEGYQEHGTFTWVVLQAFRGKAGGGKGNVVLTADLARYVAREVPALARRLQREQNPAVYATGQPFPVVAGR | failed
2 | MEFNDLGITIKELRIKKNISQSELCHGICSQSQISKIEKGMIYPSSILLYQLSERLGIDPNNIFALTQNKRLKYVENVKYVIKDCLKQKQYKELYEIVKKEKNLNNFQTKDEKQFLMWHEAIAIFMVDKSIKTALDFLNNALKLTLTNSDFLSEREIDIMQTMAIFYAENKEYEKSINIFKRCLTNFNKLDFPRDKEIKLKLMLNLAKCFDFTYQHEEAIKYIDKGIKLAINLNTLYLLGELFYLKGQCLLKMKQHNVEDVIYNWKKALFIFELTEKEYYTKMLPDELIELQNKKHS | failed
3 | SSNQTPYIGSKISLISKLDIRYEGILYTVDTNDSTIALAKVRSFGTEKRPTANPVAARDDVYEYIIFKASDIKDLIVCDTPKMANIGGGLPYDPAIISVSSRSAPASDGAPAASAGSSRAGTPSRNSPLGQIIQNQRPGRGGYQQNFQANRGYNNYRGGFAGGYNNQRGHNNYGVPRVNHREKLKFESDFDFEKANEKFQEVLVDNLEKLNIEDKAEPEVEEKKDAAFYDKKTSFFDNISCESLEKAEGKTGRPDWKKERETNQETFGHNAVRSLNYRRGFGGRGRGGNRGYGGYNNGYQHQHQHRGGYNGGYRQNNGGYRRGGYAPRDNQGNTAAAAEQ | failed
4 | MHLRLSTLAGFKTGPRFQSSMSEAESESRAGREEVWIEKYRPQTLDDVMGHENIVGRLKSYVSRNDLSHMLFSGPAGTGKTTCATAIARELYGDDWREHFLELNASDERGIDVVRDRIKNFARTSFGGVEYRIIFLDEADALTSDAQSALRRTMEQFSNNVRFILSCNYSSQIIDPIQSRCAVFRFSPLADDAVAEEIRTIAAEEDIELTEDGLDALVYAADGDMRKAINGLQAASVSGDTVDESAVYAITSTARPEEIRTMVQSALDGDFTASRATLDRLLTEEGIAGGDIIDQLHRSIWEFDIDDDAAVRVLERIGETDYRITRGANERVQLEAMLASLAQGE | failed
5 | MTRTTGTRTTGILADGAIRALFAGDKLKSEADLDVDQVQPASLDLRLGSKAYRVRASFMPGPGTRVIDKLNRFSLHEVDLSQGAVLETGCVYIVPLMESLALPADMSASANPKSSTGRLDIFTRVMTDNAQEFDKIPAGYTGPLYLEISPRTFPIVVRRGSRLSQIRFRIGHALLNESEVLKLHETETLVASENPNVTGGGIALSIDLKGFGENGLIGYRGKHHTAVVDVDKKAQHDVLDFWEPLFARGRAELILDPDEFYILVSREAVHVPPLYAAEMTPFDPLVGEFRVHYAGFFDPGFGHAQAGGTGSRAVLEVRSHEVPFILEHGQIVGRLVYEHMLEKPEGLYGTGLGSNYQAQGLKLSKHFRAE | not failed
6 | MECAEKVEAEIPGQAGRRAGKPSRTYYLEVYGCSLSEFDALIMASRLEEAGYRRVARPEDADVILVNTCAVRLDTEQRIAERLEKLRLQLPDRKYVVAGCLVKARPGLVARLVPEASLLAPQAVERVLDAVDALESGRRLVVLDGRRDTRSMPQLPITDAVVTVMIQEGCLGDCSFCITKVARRQVRSYSPRVIVERVREAVEKGAREIRLTGTDVAVYGVDLPGKPNLADLVAAILEKVEGDYRIRVGMMTPDQVEPYLDSLLDVYRDERVYKYFHLPVQSGDDEVLKIMKRNYTVSEYKAIHRRIKSRFPDAMIATDIIVGHPGETWEAFWNTVRLVEELRFEKVHLAQYSLRPHTEAASMEQVPDSVKKERSRILGKIVAEIGLEINGSYVGRRVRALVTERSWREGSMTGRLDNYTPIILPYEERAMGRWVYAEVEEATFFDLRSSKFEPAPLEHHHHHH | failed
7 | MKIKACIFDMDGTLVNSIMDIAFSMNSALSNLGYSKIELSKFNALVGRGFNKFVIDTLKLLSLEHDNPNLQEKLYKEFVKEYNKNLSFQTKPYENIKPLLETMNKLNIPIGILSNKNHEELINLVKNIFGNILFFEIRGYSKNFPPKPDPENALDMILELNAQKEEIAYIGDSDVDMLTALNAGFMPIGVSWGFRSVQELKESGAKHIIHNPLELLDLIK | failed
8 | MVKMIEQLKRSFAVAKKDMLIFYLKGPVIIMGLIFPFFLFLAFFIGRNLEKAQLFTALISMTAFFTSTAVGPTIIPWECRGRTFERLITAPVSLTTVLLGDLQASFYFGTAITFIISTVAIFILSIRPNLQIFLVATILAILTFSAMTILMSSYPPTDVPADIMMLSSLVKFSLLFISGIFVPLKDLPKYARWISYASPLTYYVDALRNSLGDGCLPLWIDFGMLALFGILFFLSGVAIHKKVLERRFT | failed
9 | MIKQSPKYITPLNEQNVNKDNANLLVCPFAGASNSAFNSWRSTDISGLNCQLVNYSGHGCRFKEPAFNDIGLLANELITIIKKFYPPRHNSLLLCGHSMGAQVAFETAIQLEKNGWELSGLILSGCQAPHIQARRLLSDLNDDDFIQQLIAIGGCDAELIKQPQLLKQFMPLLRADFLATERYFFQKSTKRLFHTPVLLMYGSHDSEADKNEVEAWQDWIDKHCTINCIAGDHFYPITRPNTFCRFIIDFYHQ | failed
10 | KKVCVDTCVVIDGRITELIERGKLKDATIIIPEAVVSELEYQANMGREIGYKGIEELRKLIEKASEHNIKVEYYGERPTREEIFLAKSGEIDAMIRKVAKETNSILLTSDWIQYNLAKAQGIEAYFLEAAEEEVELVLD | not failed
11 | MAAWVIWFIIAGILFIAEMLSITFYMLWLGIGAVVGGLIALFAPDALLLQVTVGAIVSLTLTFFTKRISKNFREAKGFTDTVDMLVGKRGIVMQAITNEANGIVKVDGDTWTAIADSSIDAGEKVVVIKRHSTILQVKKESE | failed
12 | MPATAGRVRMPANNRVHSSAALQTHGIWQSAIGYDPYAPTSKEEPKTTQQKTEDPENSYASFQGLLALARITGSNNDEARGSCKKCGRVGHLTFQCRNFLSTKEDKEKDPGAIEAAVLSGLEKIRRGVGKGEVEEVSSEEEEESESSDSDVDSEMERIIAERFGKKKGGSSVKKTSSVRKKKKRVSDESDSDSDSGDRKRRRRSMKKRSSHKRRSLSESEDEEEGRSKRRKERRGRKRDEDDSDESEDEDDRRVKRKSRKEKRRRRSRRNHSDDSDSESSEDDRRQKRRNKVAASSDSEANVSGDDVSRVGRGSSKRSEKKSRKRHHRKERE | failed
13 | MKRWQMEWLLVSVALVWGANYTIGKYGVAYMSSIQFNSLRFLVASPVLLLITFLMERSLRIDRKDWLRLVAVGIVGTTMYQTMFMLSVKYTSATNASLLIAMSPIFTGILAVLHKQERFSMKVQIGSIVAFIGAAFVLLTGHTGGTTYEYAWLGNIIGLVAAIAWGWYPILAQPLITKYSAMRVTSWSTLIGIVPLVVYCLFNVNTLTWPVDMPSWGSLAYSIVFATIFGLAMWYVGISKIGSTKVMVYMYLVPLFAVIFAAVTIGEQINMMQLVGGLIIFIGLYVVKKGGIQKPALNLKKVS | failed
